Laboratory results taken from patent US20050164323A1 (Pfizer, published 2005).

Biological target: PKC-θ kinase domain (PKC-θ KD; amino acid residues 362 to 706), C-terminal hexa-histidine tag, expressed in … (Homo sapiens (Human), UniProt Q04759 362-706, autophosphorylated at 5 or 6 residues in E. coli; sites identified: Ser695, Ser685 and Thr538 or Thr536 (numbering of full-length PKC-θ))
Experiment: cell-based or functional assay

PKC-θ kinase domain (PKC-θ KD; amino acid residues 362 to 706), C-terminal hexa-histidine tag, expressed in …, sequence (Q04759 other isoform, or with tags, fused parts or gaps limits assumed): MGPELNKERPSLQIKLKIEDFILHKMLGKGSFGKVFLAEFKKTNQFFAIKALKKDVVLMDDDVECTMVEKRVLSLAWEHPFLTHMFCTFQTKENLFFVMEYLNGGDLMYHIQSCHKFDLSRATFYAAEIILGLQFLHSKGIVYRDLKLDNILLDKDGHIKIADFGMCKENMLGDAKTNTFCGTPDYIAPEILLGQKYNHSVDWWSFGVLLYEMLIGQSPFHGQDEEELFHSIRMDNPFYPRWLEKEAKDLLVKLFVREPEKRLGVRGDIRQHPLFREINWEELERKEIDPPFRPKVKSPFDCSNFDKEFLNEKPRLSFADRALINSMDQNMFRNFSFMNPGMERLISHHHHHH

| Binder | appKm (steady-state kinase kinetics, saturating ATP, 100 mM NaCl) [µM] |
| --- | --- |
| FARKGSLRQ [Peptide 1 (FARKGSLRQ), substrate, pseudo-substrate PKC alpha] | 6.5 |
| RTPKLARQASIELPSM [Peptide 4 (RTPKLARQASIELPSM), substrate, lymphocyte-specific protein 1] | 240 |
| RFARKGSLRQKNV [Peptide 2 (RFARKGSLRQKNV), substrate, pseudo-substrate PKC alpha] | 4.3 |
| LKRSLSEM [Peptide 3 (LKRSLSEM), substrate, Serum Response Factor] | 420 |
